From IntAct's records for PubMed 25574826

B1: Lon protease homolog, mitochondrial (Homo sapiens), P36776-1 (parent)
chain: MAASTGYVRLWGAARCWVLRRPMLAAAGGRVPTAAGAWLLRGQRTCDASPPWALWGRGPAIGGQWRGFWEASSRGGGAFSGGEDASEGGAEEGAGGAGGSAGAGEGPVITALTPMTIPDVFPHLPLIAITRNPVFPRFIKIIEVKNKKLVELLRRKVRLAQPYVGVFLKRDDSNESDVVESLDEIYHTGTFAQIHEMQDLGDKLRMIVMGHRRVHISRQLEVEPEEPEAENKHKPRRKSKRGKKEAEDELSARHPAELAMEPTPELPAEVLMVEVENVVHEDFQVTEEVKALTAEIVKTIRDIIALNPLYRESVLQMMQAGQRVVDNPIYLSDMGAALTGAESHELQDVLEETNIPKRLYKALSLLKKEFELSKLQQRLGREVEEKIKQTHRKYLLQEQLKIIKKELGLEKDDKDAIEEKFRERLKELVVPKHVMDVVDEELSKLGLLDNHSSEFNVTRNYLDWLTSIPWGKYSNENLDLARAQAVLEEDHYGMEDVKKRILEFIAVSQLRGSTQGKILCFYGPPGVGKTSIARSIARALNREYFRFSVGGMTDVAEIKGHRRTYVGAMPGKIIQCLKKTKTENPLILIDEVDKIGRGYQGDPSSALLELLDPEQNANFLDHYLDVPVDLSKVLFICTANVTDTIPEPLRDRMEMINVSGYVAQEKLAIAERYLVPQARALCGLDESKAKLSSDVLTLLIKQYCRESGVRNLQKQVEKVLRKSAYKIVSGEAESVEVTPENLQDFVGKPVFTVERMYDVTPPGVVMGLAWTAMGGSTLFVETSLRRPQDKDAKGDKDGSLEVTGQLGEVMKESARIAYTFARAFLMQHAPANDYLVTSHIHLHVPEGATPKDGPSAGCTIVTALLSLAMGRPVRQNLAMTGEVSLTGKILPVGGIKEKTIAAKRAGVTCIVLPAENKKDFYDLAAFITEGLEVHFVEHYREIFDIAFPDEQAEALAVER
partner: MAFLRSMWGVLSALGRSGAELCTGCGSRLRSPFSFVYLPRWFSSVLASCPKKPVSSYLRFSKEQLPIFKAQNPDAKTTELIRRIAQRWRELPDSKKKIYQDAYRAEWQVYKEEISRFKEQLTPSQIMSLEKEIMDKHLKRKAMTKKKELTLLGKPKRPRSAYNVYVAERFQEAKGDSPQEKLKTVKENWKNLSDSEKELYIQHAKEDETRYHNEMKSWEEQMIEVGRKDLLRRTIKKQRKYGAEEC

Variants of: B1
Details: with tfam_human TFAM

Variant	effect of a mutation on the interaction
P676S	with no effect
R721G	with no effect
